Measurements taken from the nanobody polyreactivity screen of Harvey et al. (2022).

Assay: yeast display, Sf9 membrane polyspecificity reagent, FACS + sequencing; frameworks hold sequencing errors
Procedure, shortened: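 Galactose induction of a Saccharomyces cerevisiae BJ5465 synthetic nanobody display library ran 36–48 hours. The cells were then stained for 1 hour at 4 °C with 10% biotinylated, detergent-solubilized Sf9 membrane reagent, pulled down on streptavidin microbeads and FACS-sorted into low and high (top ~1%) gates on expression and reagent-binding fluorescence. Labels for polyreactivity follow the gate of origin.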

Sequence | polyreactivity (PSR sort gate)
QVQLVESGGGLVQAGGSLRLSCAASGRIFSYYAMGWYRQAPGKERELVAAISWSGGSTYYADSVKGRFTISRDNAKNTVYLQMNSLKPEDTAVYYCAAGVHWDRGDYWGQGTQVTVSS | low polyreactivity
QVQLVESGGGLVQAGGSLRLSCAASGSTFDYYAMGRYRQAPGKERELVAAITTGGRTYYADSVKGRFTISRDNAKNTVYLQMNSLKPEDTAVYYCRERDYWGQGTQVTVSS | low polyreactivity
QFQHVDSGGGLVQAGGSLRLSCADSGYTFPLYDMGRYRKAPGKVSELVADINIGGASTYYADSVKGRLTISRDNSKNSVYLQMNSLKPEDTAVYYCAKEYYDGYFPTFDYDYWGQGTQVTVSS | low polyreactivity
QVQLVESGGGLVQAGGSLRLSCAASGRIFRIYGMGWYRQAPGKERELVADISIGGRTTYADSVKGRFTISRDNAKNTVYLQMNSLKPEDTAVYYCKTPYWYRIGQRLAWYDYWGQGTQVTVSS | low polyreactivity
QVQIVESGGGLVQAGGSLRLSCAASGRTVVYNSMGWYRQAPGKERELVAAITRSGDSSYYADSVKGRFSISRDNAKNPVYLQMNSLKPEDTAVYYCNAVSKRYWLMDYWGQGTQVTVSS | high polyreactivity
QVQLVESGGVLVQAGGSLRLSCAASGRTFYGYSMGWYRQAAGKEREFVSDITYSGGRTYYADSVKGRFTISRDNAKNTVYLQMYSLKPEDTAVYYCNAYYYYVNQGRYEYGYWGQGTQVTVSS | high polyreactivity
QVQLVDSGGALVQAGGSLSLSCAASGGKYDSYAMGWYRQAPGKERELVASISRSGSTNYADSVKGRFTISRDNAMNTVYLQMNSLNPEDTAVYYCAASVRGIRYDYWGQGTQVTVSS | low polyreactivity
QVQLVESGGGLVQAGGSLRLSCAASGSILGHYAMGWYRQAPGKERELVAAISWSGGSTYYADSVKGRFTISRDNAKNTVYLQMNSLKPEDTAVYYCNAAAILYTSAGSLYWYDYWGQGTQVTVSS | low polyreactivity
HVQLVESGGGLVQAGVSLRLSCAASGRLLEGYAMGWYRQAPGKERELVAAISFSTTTTYYADSVKGRFTISRDNAKNTVYLQMNSLKPEDTAVYYCAADSQQSDYDYWGQGTQVTVSS | high polyreactivity
QVQLVESGGGLVQAGGSLRLTCAASGSIFVRNSMGWYRQAPGKERELVAAIIRSGGSTYYADSVKGRFTISRDNAKNTVYLQMNSLKPEDTAVYYCNALIRYNRYTGRDYWGQGTQVTVSS | high polyreactivity
QVQLVESGGGLVQAGGSLRLSCAASGRIFKYYTMVWYRQAPGKERELVAAINSRGGTTYYADSVKGRFTISRDNAKNTVYLQMNSLKPVDTAVYYCAIDRIRDAGYRGLHRFDYWGQGTQVTLSS | low polyreactivity
QVQLVESGGGLVQAGGSLRLSFAASGLIFDSNAMGWYRQAPGKERELVASTYYADSVKGRFTISRDNAKNTVYLQMNSLKPEDTAVYYCATTSVYKSVTYDYWGQGTQVTVSS | low polyreactivity
QVQLVESGGGLVQAGGSLRLSCAASGSILYLNARGWYRQAPGKERELVAGISRRGGRTTYADSVKGRFTISRDNAKNTVYLQMNSLKPEDTAVSYCAVSTAYGYGYWGQGTQVTVSS | high polyreactivity
QVQLVESGGGLVQAGGSLRLSCAASGSIFGYNAMGWYRQAPGKERELVAAISGGGGTYYADSVKGRFTISRDNAKNTVYLQMNSLKPEDTAVYYCATDRGHKWLFYGTYYRYEYWGQGTQVTVSS | low polyreactivity
QVQLVESGGGLVQAGGSLRLSCAASGSTFVGYAMGWYRQAPGKERELVADIDSIGGSTYYADSVKGRFTISRDYAKNTVYLQMNSLKPEDTAVYYCAARRFDTALVLYDYWGQGTQVTVSS | low polyreactivity
QVQLVESGGGLVQAGGSLRLSSAASGSIFYVYAMGWYRQAPGKERELVAAISRRGARTYYADSVKGRFTISRDNEKNTVYLQMNILKPEDTAVYYCYADQYHTVGYSAEYEYWGQGTQVTVSS | low polyreactivity

Sequence | polyreactivity (PSR sort gate)
QVQLVESGGGLVQAGGSLRLSCAASGRIFGHNSMGWSRQPPWKEMELVATISSGVRTNYADSVKGRFTISRDNAKNTVYLQMNSLKPEDTAVYYCATKTYQFGYSSYYYWGQGTQVTVSS | high polyreactivity
QVQLVESGGGLVQAGGSLRLSCAASGNTLAYYDMGWYRQAPGKESELVAAITSGGTTNYADSVKGRFTISRDNAKNTVYLQMNSLKPEDTAVYYSAALGIGSSRRFSGYVYWGQGTQVTVSS | low polyreactivity
QVQLVESGGGLVQAGGSLRLSCAASGITFFQYAMGWSRQAPGKERELVAAISRSGSRTYYADSVKGRFTISRDNAKNTVYLQLNSLKQEDTAVYYCAAARVNDHYGYYRQMNYWGQCTQVTVSS | high polyreactivity
QVQLVESGGGLVQAGGSLRLSCAASGSIFVYYAMGWYRQAPGKERELVASISESDGSTSYADSVKGRFTISRDNAKNTVYLQMNSLKPEDTAVYYCAADPYFFWYSPSFDYWGQGSQVTVSS | low polyreactivity
QVQLVESGGGLVQAGGSLRLSCAASGRTFKYNAMGWYRQAPGKEREFVAAISSRGGSTYYADSVKGRFTISRDNAKNTVYLQMNSLKPEDTAVYYCNKLYGTRWSGLADDYWGQGTQVTVSS | high polyreactivity
LVQLVESGGGLVQAGGSLRLSCAASGSTSRKYTMGWYRQSPGKERELVARITSSGSSTYYADSVKGRFTISRDTAKNTVYLQMNSLKAEDTADYYCNARAHSDRKSSYIYLPYSYDYWGQGTQVTVSS | high polyreactivity
QVQLEESGGGLVQAGGSLRLSCAASGSTSTYNAMGWYRQAPGKERELVAAITESGGSTYYADSVKGRFTISRDNAKNTVYLQMNSLKPEDTAVYYCNTGYGLVDFLYGYYYWGQGTQVTVSS | low polyreactivity
QVQLVESGGGLVQAGGSLRLSCAASGSTFYLYAMGWYRQAPGKERELVAAISWSDDTTYYADSVKGRFTISRDNAKNTVYLQMNSLKPEDTAVYYCATVPHYYYDYDYWGQGTQVTVSS | low polyreactivity
QLQLVESGGGLVQAGGSLRLSCAASGSILGSYAMGWYRQAPGKERELVAAITRRGSSTYYADSVKGRFTISRDNAKNTVYLQMNSLKPEDTAVYYCAVYRRWYSGLYDYWGQGTQVTVSS | high polyreactivity
QVQLVESGGGLVQAEGSLRLSCAASGFIFRYNAMGWYRQAPGKERELVAAITSGGSTNYADSVKGRFTISRDNAKNTVYLQMNSLKPEDTAVYYCNKYRPYGRIYHLAYGRDYWGQGTQVTVSS | high polyreactivity
QVHLVESGGGLVQAGGTLRLSCAATGRTIYDNAMGWYRQAPGKESELVAVISRSGSTYYADSVKGRFTISRDNAKNSVYLQMNSLKPEDNAVYYCARRGVWGVTYSRLYHWGQGTQVTVSS | high polyreactivity
QVQLVESGGGLVQAGGSLSLSCAASGSIFYYYAMGWYRKAPGKERELVASIRSGGSTNYADSVKGRFTISRDNAKNTVYLQKNSLKPEDTAVYYCAARKFYASSLRYGYWGQCTQVTVSS | high polyreactivity
QVQLVESGGGLVQAGGSLRLSCAASGRIFGTNAMGWYRQAPGKERELVADITSGGSTNYADSVKGRFTISRDNAKNTVYLQMNSLKPEDTSVYYCAATWYGYYSRYDFYYWGQGTQVTVSS | low polyreactivity
QLQLVESGGGLVQAGGSLRLTCAASGSIIWVYAMGWYSQAPGKEWELVAAITSGVSTYYADSVKGRFTISRDHAKNTVSFQMISLKPEDTAVYYCAVVGGFRWIRMEYWGQGTQVTVSS | low polyreactivity
QVQLVESGGGLVQAGGSLRLSCAASGSLFIANAMGWYRQAPGKERELVAAISWSGGRTYYADSVKGRFTISRDNAKNTVYLQMNSLKPEDTAVYYCAAEWEFYYEYDYWGQGTQVTVSS | high polyreactivity
QVQLVESGGGLVQEGGSLRLSCAASGSIFRKYAMGWYRQAPGKERELVAVITTDGSTNYADSVKGRFTISRDNAKNSVYLQMNSMNPEDTAVYYCNAVRSSIGTDIDYWGQGTQVTGSS | low polyreactivity
